{"source": "patent US20240238401A1", "target": "mAb binding to Consensus GII.4 VLPs (BioGenes; IgG clone #1-9-1)", "test": "IVRP competition ELISA; serially diluted thin-film freeze-dried and reconstituted vaccine (4% trehalose or 5% sucrose, bulk or single-vial TFFD) competes for mAb against plate-coated VLP; reference is undried vaccine", "data": [{"substance": "Norovirus genotype GII.4 Consensus VLP (from UniProt P54635 1-539)", "values": [{"measurement": "relative potency (IVRP; inflection point of test vaccine divided by that of reference vaccine)", "value": "49 to 73", "unit": "%"}]}]}
